Measurements taken from the DeepSol protein solubility set.

Test: soluble on expression in E. coli; label from the status in PepcDB or PDB records

Row | Sequence | soluble on expression in E. coli
1 | MSLQRKRIVRERVVYVLDYMREGNPLDKHKFHRDKPLIQAVGEDYFLLLELTPLSYNLDFLPEDKIELDSNSSVKVDAHISYEDLTSVSRDNLPKILYKIVFEKEKVFVEIFNKAEPLTLRLHALELLPNIGKKTLRIILEERKKKPFESFKDIESRIGVKDVASILVERIIKEMQGGEKYYLFVYPLIPDENKRLEQQFIYVGYIEKLKEGHHHHHH | soluble
2 | MSLQTSDQYSIQEVVDAGHGFFGETTGGLAKVVERAFQQYGLPNGYILGQEGSGAFVAGLTYGEGTLYTKNAGQHPVFWQGPSLGLDYGGQGTRAMMLVYNLPSVDALYRRYGGVSGSAFIVAGVGMTYLKSSDVTLAPIRTGIGARLGINVGYLKLTQQPTWNPFEGHHHHHH | soluble
3 | MSLQYQNQDNFPERIEYLVDKLNGPSEFARKTGVTLSTITRWRKGEADPSRSNLVKIAEVTGVSIEWLATGKIKEEKTTEEKPAGSLVSRAFERMQAMLEEGVSMIDSYSSINVSAGFGSFNEGITQPDGQEPYSDELLTSLGVKADNCAVFWANGNSMLPTINNYDQMLVDLSRKEIQGDRIYLVQNGESVWVKRVKMEWDGISLISDNKEEYPPISITGENAQNLQIIGQVVHIGHSLIEGHHHHHH | soluble
4 | MSLRAALADLHASIVSARKAPFSDRPIEGSLERCLAALAPLCRRARITRLGDLTGLDRLGLPVMQAVRPAALSEVTSLGRGLSRAEAAVGALMESLERYFAEAIPAERTFLATADQLEVTDGLFENLVVPEWRGKWRQRTIAWIEGIDVVGGSAYPVPLELVHTRYSEPQPAHDGAFLRTTTGLACHTSRHGAFLHGLWECLERDAIARAFGTHGFFDRWRIAPCGLGDGVDHIRSLAGARGISFALWLAPSPAAVPVVWCQTVEAGHGEPILALPTEGYAAGPSIEMAAASAMLEALSARAGAISGARDDQTREHYRRSTDAAVAKARELVLADAASKPGEATYATIPDPGTLLDRVVEAGLGPVLAIPVGVDEEAGVHCVRTVLPGASPFFVLREGHHHHHH | not soluble
5 | MSLRAGVTGGPQIITKVITMIKFVLDTSIFVNPDVRKKFGETPTEAMKTFLHYAENLFGKVEFYMPPGIYRELMHFVEEEEVSPDIELYIIKKPPNVHDIKIPAFVVYELIEDIRRRVDKGLRVAEKAVRESVIDTSNVDKIIQKLRRNYRKALREGILDSKEDFELILLAKEIDGIIVSADVGILTWAEKMGIKWVDAFKFKEVLSELVEKFKRSESEKERKEGHHHHHH | not soluble
6 | MSLRGNFFSFVRISGQSMSPNLVNNQIVLLEKKANVSRGTVIVSKTNNLQKQNTGVQDIALRVVALPGDKVNYKKGQLYVNGKKVNQSYISSQVKTETGMSIDTGWSINSLSLSKNWPKSQRNIKKVQKNSYFVLADNRIDPVDSRQYGLIKKRQIEGVVKVFFLGNKNKDEGHHHHHH | not soluble
7 | MSLRILYLDPFSGISGDMFLGLLVDLGVDPEKIKSRLEKLNVEFDLVVKKVNKKGVTATKVDVVFPRKEHHEDHIVSDHDHHHHHGRHLSEIVEVLSRLEDPLKEKAIRMFEALAEAESKIHGLSKEKVHFHEVGAMDAVIEIAGAVVGLELLEVEKVFCGTVNTGSGFVMTEHGRYPVPAPATAELLKGIPIYMDQKVRAELVTPTGAVILKILVDEFRTPILRVEKVGYGAGTMDLEIPNVLRGYLGYIEPSERTGDVLIETNVDDMNPQLFGHLMERLFEAGAKDVFFTPIYMKKNRPAVKVSVLCHESKKDEILKLLFKESTSIGARVFYPEKVEATRTLKTVKTEYGEIPVKIASFDSEIVNISPEYEACKKVAQEKGIPLKEVYRAVYKSVSEVRNDVEGHHHHHH | soluble
8 | MSLRINLTSEKTLKEASTSMAPNVLKGNVIKNKAVASGKYVPFFGSSELSRFSAFHPSVLSEKYQRNYRPFLLGEAGTQSLTQAMVIHSMGDAIANKKAVFILSPQWFVKKGVPNDSFGAHYSQLQTYQWLANLTELTSGDQYLAQRLTKFPVVQKDKVLMETLANLQAGQLPQRSQRDYFIMNLRFLNREDELFSQIGMVSREPIVEKDMKQLPATYNFNELDQLAGKIAAKAINNNKFEISNGFYRQRIKPVLPKLAHSQKKWDYRFSPEYGDFQAALEQLAEKNVDVLFVIPPVNKRWSDYTGLSQDMLQQVARKLKYQLQEQGFTNIADFSTCSNERYFMADTIHLGWRGWLAVDRQVDEFMKQPASKKLAYQIDDRFYQTDWQQQNPLVLPQFEGHHHHHH | soluble
9 | MSLRIQDGTMRYTYKGVPTYKNPFDLALYQMLLWQQKPRTLIEIGSKWGGSALWFADMMCSFGVDCVIHSIDITPPSISVPGVTFHRGDGRDLAATLPADLMESLPRPIFVIEDADHHCETTLAVLRFFDRWLVAGEYIAVEDGIVDDLYGPEFVARLMGGPRRAVELFLRDRGQNYEIDTGLCDHFGTNVTWNVNGYLRRVREGHHHHHH | not soluble
10 | MSLRIRVPATTANLGPGFDSCGLALTLYLTLDIGAEADSWYIEHNIGGGIPHDETNVIIETALNLAPNLTPHHLVMTCDIPPARGLGSSSAAVVAGIELANTLAELNLSKEEKVRIAAEIEGHPDNVAPAVLGNWVVGAKLDGEDFYVRHLFPDCALIAFIPKAELLTSESRGVLPDTLPFKEAVQASSIANVMIAAILRNDMTLAGEMMERDLWHEKYRSQLVPHLAQIRDVAKNQGAYAACLSGAGPTVLVFAPRNLANKLQTSLQTLEIDADVLLLDVEGSGAEVFREGHHHHHH | soluble
11 | MSLRKPPLHMLPLGGCGEIGMNFTLYGHQDHWIVVDCGMMIRQDLPQAPLQVPNVDMLASQNIVPRAIVVTHGHEDHIGAIAWLWPRWQCPVHATPLAAGLLRLRFAEQQLPTSAIQVITPGDAMESGPFDIRFLPLPHSIPESCALLLTTPQHRILHTGDWKLDPEPLIGKPASPQRFQALAPVDLVVGDSTNAPVPGHSRSEGEVARALETTIGACPGRVIVSCFASNLARILALGRAAHACGRRVSLMGRSMERMVGVARGLGYLEDFPPLVPVRDLGYLPPEEVLVIATGSQGEPRAALSRLAQGRHADFELHPGDSVIFSAKAIPGNELLIERLQAGLKRAKVTIFDERSHPELHASGHPAQAELRRFYEWVKPRRLLPVHGEQQHQQAHRALAESLGIEVPWIPRNGDMLRLDAEGLHCESRHSLAPHIVTQNRIHPLEGLRAPEASSMHRRSGILSLTLPVVRQSTGWVRIGRLLWDTSHDLPLDDVALADWVDEQLAGHDADTIVTLRQRLHGPLMHWLGDHLRHLPDVHLHIMAAEGDTVYDAEGHHHHHH | soluble
12 | MSLRLVKTALTIAGSDSGGGAGIEADLKTFTAFGVHGLVAITSVTAQNTQAVTAIHDIPPDVVSEQIRAVAEDIGVDAAKTGMLSNAEIIKAVAKTVKNYDFPLVVDPVMIAKSGAPLLREDAVDALIKYILPLATLVTPNRFEAEKLSGMKIRTVEDAKIAAKKIAEETGAKAVIVKGGHIEGEEAIDVLYHNGSYRLYRAPKVEGCTHGTGCSFSAAITANLAKGFGLEDAIEVAKKFITLGIAMGHRIGHGHCPVNQSAWIEIPAEKWRIYEELTRAVREFEEMNPVKFIPEVGTNFVYSLPLPYARTRDDVAGVKGRIVRVGNEVRAVGPVEFGASDHLARAVLTFMKFYPEYRSAINIRYSEETVRLAEEQGLVVSFYDRREEPEEIKEREGATIPWGIESAIKRVKQRPDVIYHLGDVGKEPMILIFGRNPREVLDKLRLEGHHHHHH | soluble
13 | MSLRNDAYSTLRVSSEHGVARIILDNPPVNVIGATMMRELRTVLTTLADDSSVRVIVFSSADPEFFLAHVDMRIGEKMDALQELAASAPADVNVFQAVGELIRHQPQVTIVKLAGKARGGGAEFVAAADMAFAAAETAGLGQIEALMGIIPGGGGTQYLRGRVGRNRALEVVLTADLFDAETAASYGWINRALPADELDEYVDRVARNIAALPDGVIEAAKRSLPADDLKEGLLGENDAWAATFSLPAAQQLISGGLKDGAQTPAGERDLEGLMRSVAREGHHHHHH | soluble
14 | MSLRNVLQDYLDEHSFRVVVKKKKNYLTYEGLQDRYAYILKSGIIKTSVISKDGREFNLRYINNLEIVSLLRDEYSEFIDAPFNIRIESPQAELYQIDRVQFWRDINNSKDLQMYVKEYYRDRLMHSMKKMQQMLMNGKFGAVCTQIYEMYDSFGVETEEGILIDFVVTNEEIAHFCGITSASSVNRMMQQLKELGAIELRNRKILIKDLDMIRDNEGGSHHHHHH | soluble
15 | MSLRPQFEREQWLNLNGTWTFDFDFGKSGKDRRLQSAEKFDKNITVPFCPESKLSGVGYTDFIEQMWYQRNITIPSDWNGKKIFLNFGAVDYCAEIYVDGKFVQRHFGGSSSFAVDLTRYVTPGKTHNLVVFVQDDLRSGLQTGGKQCGNYYSGGCSYTRTTGIWQTVWMEAVSTDGLKSVFVRPDIDQKQLIIEPEFYNESANTLEIILKDGNKTVAKKSVNCANSSVVVLPVKNMKLWSPEDPFLYDLVYQVKDAKGNVLDEVKSYAGMRKVHTANGRFYLNNQPYFQRLVLDQGFYPEGIWTAPSDEDLKNDIVLGKEAGFNGARLHQKVFEERYYYWADKLGYITWGESASWMLDVNKELAARNFLGEWSEVVVRDRNHPSLVTWTPFNETWGGGPDAYVRLVRDVYNITKAIDPTRPVNDASGDNHVITDIWSVHNYEQDRAKLTEQLKMEEGKEPYRNARDKDFLAVYEGQPYMVDEFGGIPWMAEKDRKNSWGYGGMPENAEAFYKRLEGQIDAFIDSPHVTGFCYTQLTDVEQEKNGIYYYDRTPKLDMKRIKAIFEKIKEGHHHHHH | soluble
16 | MSLRPTMADVAREAGVSLSTVDRVLNLRADVRTDTAQRIAAAAALLGFHAKGVIEQRILNDKPTVRLGFLLQKSGVAFYKGLAQALSNAAATFTRARVQVVIGYLDDLDPATVAQRLLALGDQVDGVGMVAVDHPRVRDAVASLQVAGVPVVALISELAGLGSASYVGVDNRLMGRTAGWFVTRLAGSPGSAAVMVSSQRFQCQELCEMSFRSYLSSHSTDWELLASRLTLEDDDFAYGNALDLLSGEPELSALYVAGGGVAGVLRALRELQQQQIRLPVVVCHDLTPLTREALKADLVQVVLSHPIVQVAEQTVRALVAASSDLTRVARVTVPIQVDVSESIAEGHHHHHH | soluble
17 | MSLRQAHFLKGKDAMNNPSVIPAFDFREMVTTLDNKIITTSLKVADYFGKRHKDVLRAIRNLKCSDDFTQRNFAPIDFIDKNGDVQPMYNITRDGCMMLVMGFTGKTAAAVKECYINAFNWMAEQLNRRMAMGEEGHHHHHH | soluble
18 | MSLRQRFVLDTTAITDAGLRIKEGYESLCESAAEVLDLIALARLKLDISCYIPYPSVYTELTSFLKRYGCDEEIFTKLDTWLVKKTPNRYEVKIPAAIFYEYIITVRQKMNRGRRLAEEYILESSAITAKLEDKSKIEEEIGALISKFRDKYRAVMRQGILDSAPDLDVLLLAKELEAGVVSSDAGIRKWSERLGLRFVEAAKFPRMLKEYLKLMGSKDIVGWFESEEDEGHHHHHH | not soluble
19 | MSLRSSFRVGVTEDRNKKCRRTMEDTHAYLYNFLGNPVPSAQNDDSDQSSHPSDASPKTGELTPIVETDNGYFAIFDGHAGTFAAQWCGKKLHLILEDVMRKNINAPVPELLDQTFTSVDQQLEKLPVKNSGCTAVVALLRWEDRIPTPSSVTGSSAIGPAAVAATKAGADSKADDTPTQEAAATPVPAIPPKLREKAIRQRVLYTANVGDARVILCRNGKALRLSYDHKGSDENEGRRIANAGGLIMNNRVNGVLAVTRALGDAYIKDLVTGHPYTTETVIQPDLDEFIILASDGLWDVCSDQEAVDLIRNVSDAQEASKILVDHALARFSTDNLSCMVIRLYADREGHHHHHH | soluble
